This passage reports IC50 results from patent publication US20230141962A1.

Test [1] has as its target SARS-CoV-2 S1 (D614G) (SARS-CoV-2), P0DTC2. To be noted: remark: other sources report otherwise.
Test [2] concerns the target SARS-CoV-2 S1 Beta Variant (K417N, E484K, N501Y, D614G) (SARS-CoV-2), P0DTC2. To be noted: remark: other sources report otherwise.

By IC50 is commonly meant the concentration that gives 50% inhibition. Higher therefore signals lower potency.

B1: scFv clone #26 (scFv)
scFv: QAVLTQAPSASGTLGQQVTISCSGTTSNIGRNTVNWYQHLPGTAPKLLIFVSNQRPSGVPDRFSGSKSGTSASLVISGLQSEDEADYYCGAWDDSLDGMLFGGGTKLTVLGSRGGGGSGGGGSGGGGSLEMAQVQLVQSGAEVKKPGASVKVSCKASGYTFTSYGISWVRQAPGQGLEWMGWISAYNGNTNYAQKLQGRVTMTTDTSTSTAYMELRSLRSDDTAVYYCARGYYGDLDPWGQGTLVTVSSTSGQAGQ
Regarding B1, the IC50 in test [1] was 1.4 nM; in test [2], 2.27 nM.
